Measured values taken from patent US12528864 (GlaxoSmithKline, dated 2026).
Where two headings read alike, the source gives them in different places.

Columns and labels:
[1] = biological target: T1, cynomolgus monkey CD96, native, on primary cynomolgus monkey T cells (cynomolgus monkey, UniProt A0A2K5TWV6 22-569); experiment: flow cytometry on activated cynomolgus monkey T cells, donor 1
T1 construct: whole, on cells
T1 sequence: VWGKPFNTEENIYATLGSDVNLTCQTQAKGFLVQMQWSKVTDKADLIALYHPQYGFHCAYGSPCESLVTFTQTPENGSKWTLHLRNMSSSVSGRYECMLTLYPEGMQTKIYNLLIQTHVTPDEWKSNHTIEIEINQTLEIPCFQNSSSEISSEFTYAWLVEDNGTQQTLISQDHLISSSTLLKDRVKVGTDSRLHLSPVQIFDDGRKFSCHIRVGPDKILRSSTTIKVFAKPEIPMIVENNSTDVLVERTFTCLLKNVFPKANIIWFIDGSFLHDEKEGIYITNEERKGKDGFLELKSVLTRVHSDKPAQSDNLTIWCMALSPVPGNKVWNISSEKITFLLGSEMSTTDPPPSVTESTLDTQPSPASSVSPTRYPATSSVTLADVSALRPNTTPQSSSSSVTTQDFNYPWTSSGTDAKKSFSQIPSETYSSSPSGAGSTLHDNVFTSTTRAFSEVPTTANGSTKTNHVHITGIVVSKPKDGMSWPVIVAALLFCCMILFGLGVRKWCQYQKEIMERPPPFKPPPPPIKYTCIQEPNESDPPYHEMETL

[2] = biological target: T2, cynomolgus monkey CD96v2 expressed on cells (CHO cells; transiently transfected HEK cells) (cynomolgus monkey, UniProt A0A2K5TWV6 22-569); experiment: flow cytometry on transiently transfected HEK cells (Cyno CD96v2)
T2 construct: the cell is named under assay; also called CHO-cyCD96; Cyno CD96v2
T2 sequence: T1 sequence

[3] = biological target: T3, human CD96v2 expressed on cells (CHO cells; transiently transfected HEK cells) (human, UniProt P40200-2 22-569); experiment: flow cytometry on transiently transfected HEK cells (Human CD96v2)
T3 construct: whole, on cells; the cell is named under assay; also called CHO-huCD96; hCD96v2
T3 sequence (looked up): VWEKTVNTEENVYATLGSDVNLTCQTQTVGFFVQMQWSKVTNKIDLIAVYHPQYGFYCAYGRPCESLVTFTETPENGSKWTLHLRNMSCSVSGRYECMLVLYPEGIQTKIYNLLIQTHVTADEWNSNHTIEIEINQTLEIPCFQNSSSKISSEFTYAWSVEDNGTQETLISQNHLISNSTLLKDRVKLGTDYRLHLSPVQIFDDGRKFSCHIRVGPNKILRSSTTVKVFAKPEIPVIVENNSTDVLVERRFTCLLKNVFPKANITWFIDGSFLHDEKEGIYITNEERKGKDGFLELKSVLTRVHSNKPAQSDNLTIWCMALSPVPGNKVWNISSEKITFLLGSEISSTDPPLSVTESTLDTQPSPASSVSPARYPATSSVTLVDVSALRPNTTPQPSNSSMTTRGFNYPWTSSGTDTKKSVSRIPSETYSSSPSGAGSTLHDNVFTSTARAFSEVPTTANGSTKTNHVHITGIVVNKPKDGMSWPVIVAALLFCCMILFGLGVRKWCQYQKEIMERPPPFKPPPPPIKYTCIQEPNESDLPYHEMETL

[4] = biological target: T3, human CD96v2 expressed on cells (CHO …); experiment: as above; remark: listed apart in the source
[5] = biological target: T3, human CD96v2 expressed on cells (CHO …); experiment: flow cytometry on transiently transfected HEK cells; upper end of range, n = 3
[6] = biological target: T2, cynomolgus monkey CD96v2 expressed on …; experiment: as above
[7] = biological target: T4, human CD96v1 on transiently transfected HEK cells (human, UniProt P40200 22-585); experiment: as above
T4 construct: whole, on cells
T4 sequence (looked up): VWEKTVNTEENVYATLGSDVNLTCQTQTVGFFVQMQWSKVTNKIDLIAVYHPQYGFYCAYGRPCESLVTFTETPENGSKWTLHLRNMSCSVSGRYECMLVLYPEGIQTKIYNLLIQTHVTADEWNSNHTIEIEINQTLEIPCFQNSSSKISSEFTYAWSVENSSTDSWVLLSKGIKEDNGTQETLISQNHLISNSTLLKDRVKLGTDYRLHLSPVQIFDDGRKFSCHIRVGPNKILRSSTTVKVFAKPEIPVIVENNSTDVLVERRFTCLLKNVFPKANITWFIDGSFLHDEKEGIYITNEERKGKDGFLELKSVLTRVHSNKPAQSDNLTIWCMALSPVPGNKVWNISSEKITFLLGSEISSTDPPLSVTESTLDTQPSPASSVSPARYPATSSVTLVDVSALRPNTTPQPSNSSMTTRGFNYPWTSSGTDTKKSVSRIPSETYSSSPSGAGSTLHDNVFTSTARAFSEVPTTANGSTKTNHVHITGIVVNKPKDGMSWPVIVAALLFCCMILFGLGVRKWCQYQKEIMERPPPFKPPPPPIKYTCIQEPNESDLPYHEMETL

[8] = biological target: T5, cynomolgus monkey CD96v1 on transiently transfected HEK cells (cynomolgus monkey); experiment: as above
T5 construct: whole, on cells; also called Cyno CD96v1

[9] = biological target: T6, blood derived cynomolgus monkey CD96v2 on transiently transfected HEK cells (cynomolgus monkey); experiment: as above
T6 construct: also called Blood derived Cyno CD96v2

[10] = biological target: T3, human CD96v2 expressed on cells (CHO …); experiment: flow cytometry, inhibition of human CD155-Fc-AF647 binding to CHO cells expressing human CD96v2; competitor CD155-Fc

EC50 (read off the curve) [1]: ~0.05 nM
EC50 (read off the curve) [2]: ~10 nM
EC50 (read off the curve) [3]: ~5 nM
EC50 (read off the curve) [4]: ~6 nM
EC50 [5]: 8.78 nM
EC50 [6]: 11.2 nM
EC50 [7]: 8.89 nM
EC50 [8]: 12.3 nM
EC50 [9]: 10.2 nM
IC50 [10]: 1.55 nM
B1: 42Y073-86F08-66 (antibody)
heavy: not shown
light: DIQLTQSPSSLSASVGDRVTITCRASQSISSYLNWYQQKPGKAPKLLIYAASSLQSGVPSRFSGSGSGTDFTLTISSLQPEDFATYYCQQVLHTITFGGGTKVEIKRTVAAPSVFIFPPSDEQLKSGTASVVCLLNNFYPREAKVQWKVDNALQSGNSQESVTEQDSKDSTYSLSSTLTLSKADYEKHKVYACEVTHQGLSSPVTKSFNRGEC
notes: also called GSK 6097608; GSK6097608
